# Primed or numbered codes have the meaning given here. The star is where a group is joined. Biotin = O=C1N[C@H]2[C@H](CS[C@H]2CCCCC(=O)*)N1; FITC′ = not defined here
# B1: biotinylated PAR1 peptide (biotin-31SKATNATLDPRSFLLRNPNDKYEPFWED58-FITC) (peptide)
# peptide: Biotin-SKATNATLDPRSFLLRNPNDKYEPFWED-{FITC′}
# notes: also called PAR1 extracellular peptide; source: synthetic peptide, bought: Peptron, Daejeon, Korea (>95%)
# Assays:
# KLK4_(S207A) = target: T1, KLK4_(S207A) (human, UniProt Q9Y5K2 31-254, S207A); experiment: SPR; ProteOn XPR36; biotinylated PAR1 peptide immobilised on an NLC chip via NeutrAvidin-biotin (2600 RU); KLK4 variants flowed over in PBST at 30 µL/min for 818 s, dissociation 30 min (166 min for KLK4 S207A,L185D); 25 °C; empty channel subtracted; 1:1 Langmuir kinetic model; settings: both partners purified
# T1 construct: Kallikrein-related peptidase 4 (KLK4), human, UniProtKB Q9Y5K2; peptidase domain left after thermolysin removed the pro-peptide S27CSQ30 (begins at residue 31); S207 is Ser195 in chymotrypsin numbering; also called KLK_(S207); not shown: FLAG, N-terminal, cleaved
# T1 sequence (Q9Y5K2 31-254 S207A): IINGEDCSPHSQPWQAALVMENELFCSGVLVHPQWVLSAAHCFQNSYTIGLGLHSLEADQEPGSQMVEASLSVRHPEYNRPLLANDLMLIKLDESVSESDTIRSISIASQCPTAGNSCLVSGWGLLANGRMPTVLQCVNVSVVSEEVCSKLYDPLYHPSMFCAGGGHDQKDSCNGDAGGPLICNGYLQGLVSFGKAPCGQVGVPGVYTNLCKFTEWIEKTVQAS
# KLK4_(S207A,L185D) = target: T2, KLK4_(S207A,L185D) (human, UniProt Q9Y5K2 31-254, S207A | L185D); experiment: as above; settings: both partners purified
# T2 construct: Kallikrein-related peptidase 4 (KLK4), human, UniProtKB Q9Y5K2; peptidase domain left after thermolysin removed the pro-peptide S27CSQ30 (begins at residue 31); L185D chosen by in-silico saturation mutagenesis; also called KLK4_(L185D,S207A); KLK_(S207,L185D); not shown: FLAG, N-terminal, cleaved
# T2 sequence (Q9Y5K2 31-254 L185D/S207A): as the sequence (Q9Y5K2 31-254 S207A) above, with L155D counted along it
binder,measurement,setting,value
B1,Kd,KLK4_(S207A),1120 nM
same,koff,KLK4_(S207A),0.000391 s⁻¹
same,kon,KLK4_(S207A),349 M⁻¹ s⁻¹
same,Kd,"KLK4_(S207A,L185D)",55.5 nM
same,koff,"KLK4_(S207A,L185D)",3.17e-06 s⁻¹
same,kon,"KLK4_(S207A,L185D)",57 M⁻¹ s⁻¹
